Measurements as given in the nanobody polyreactivity screen of Harvey et al. (2022).

Assay: yeast display, Sf9 membrane polyspecificity reagent, FACS + sequencing; frameworks hold sequencing errors
Method in brief: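 A nanobody's polyreactivity label depends on the gate it was sorted from. Yeast display cells were stained with 10% biotinylated, detergent-solubilized Sf9 membrane reagent for 1 hour at 4 °C, enriched on streptavidin microbeads and sorted by FACS. The low and high (top ~1%) gates were set on anti-HA fluorescence for expression and streptavidin fluorescence for reagent binding.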
With “QVQLEESGGGLVQAGGSHRLSCAASGSIFGGNAMGWYRQAPGKERELVAAITQSGGRTYYADSVKGRCTISRDTAKNTVYLQMNSLKPEDTAVYYCNRVYKSQTTDSYPLSYYYWGQGTQVTVSS” the “polyreactivity (PSR sort gate)” value was “high polyreactivity”.
For “QVQLEESGGGLVQAGGSLRIICADSGINFRYNAMGLYRKAPGKERELVAGIRKRGGSTYYADSVKGRFTISRDNANNTVYLQMNSLKPEDTEVYYCAALCPTTGRNYHSTPYEYWGQGTQVTVSS”, the “polyreactivity (PSR sort gate)” value was “high polyreactivity”.
With “QVQLEESGGGLVQAGGSLRISCAASGFTFKYYVMGWYRQAPGKERFVAAITGSGASTYYADSVKGRFTISRDNAKNTVYLQMNSLKPEDTAVYYCNAVYYAGRYRYDYWGQGTQVTVSS” the “polyreactivity (PSR sort gate)” value was “high polyreactivity”.
With “QVQLEESGGGLVQAGGSLRISCAASVRTFKYYAMGWNRQAPGKETELVAAISWSGSSTSYADSVKGRFTISRDHAKNTVYLQMNSLKPEDTAVYYCAAATYRQFTGTYDYWGQGTQVTVSS” the “polyreactivity (PSR sort gate)” value was “high polyreactivity”.
With “QVQLEESGGGLVQAGGSLRLICPASGRTFIRKAMGRYRQAPGKERELVASIRWSGGSTYYADSVKGRFTISRDNAKNTVYLQMNSLKTEDTAVYYCAASRWRPLERGTTWLHDYWGQGSQVTVSS” the “polyreactivity (PSR sort gate)” value was “low polyreactivity”.
In the case of “QVQLEESGGGLVQAGGSLRLSCAASARTIFGYAMGWYRQAPGKERELVAAINWGGASTYYADSVKGRFTISRDNAKNTVYLQMNSLKPEDTAVYYCAADSVPSRPTYGRYDYWGQGTQVTVSS”, the “polyreactivity (PSR sort gate)” value is reported as “low polyreactivity”.
With “QVQLEESGGGLVQAGGSLRLSCAASGAIFYAYAMGCYRQATGKEREFVAAITRRGGNTYYADSVKGRFTISRDNAKNTVYVQMNSLKPEDTEVYYSAADAGGGTFDYWGHGTQVTVSS” the “polyreactivity (PSR sort gate)” value was “low polyreactivity”.
For “QVQLEESGGGLVQAGGSLRLSCAASGFIFAQNAMGWYRQAPGKERELVARIRVSGTRTYYADSVKGRFTISRDNAKNTVYLQMNSLKQEDTAVYYCAAVPYTYDFGYKRFYWGQGTQVTVSS”, the “polyreactivity (PSR sort gate)” value was “high polyreactivity”.
For “QVQLEESGGGLVQAGGSLRLSCAASGFIFDYYMGWYIQAPGKERELVARISYTGGSTYYADCVKGRFTISRDNAKNTVYLQMNSLKPEDTAVYYCATRGAEAERFASYDFDYWGQGTQVTVSS”, the “polyreactivity (PSR sort gate)” value was “low polyreactivity”.
In the case of “QVQLEESGGGLVQAGGSLRLSCAASGFIFSRNAMGWYRQAPGKERELVAAITGSGARTYYADSVKGRFTISRDNAKNTVYLQMNSLKPEDTAVYYCNADARGGIYFRGVKFDYWGLGTQVTVSS”, the “polyreactivity (PSR sort gate)” value is reported as “high polyreactivity”.
For “QVQLEESGGGLVQAGGSLRLSCAASGFIFYRYAMGWYRQAPGKERELVAALTTGGDRTYYADSVKGRFTISRDNAKNTVYLQMNSLKPEDPAVYYCATLWSYYYATIYLDGYDYWGQGTQVTVSS”, the “polyreactivity (PSR sort gate)” value was “high polyreactivity”.
In the case of “QVQLEESGGGLVQAGGSLRLSCAASGFISFAYAMGWYIQAPGKERELVAGISRSGDSTYYADSVKGRFTISRDNAKNTVYLQMNSLKPEDTAVYYCAARQVDWFDYTTAQVGSYKVNYWGQGTQVTVSS”, the “polyreactivity (PSR sort gate)” value is reported as “low polyreactivity”.
For “QVQLEESGGGLVQAGGSLRLSCAASGFTFARNGMGWYRQAPVKESEFVAAITRSGGRTYYADSVKGRFTISRDNAKNTVYLQMNSLKPEDTAVYYCAAATSYGKSEYDYWGQGTQVTVSS”, the “polyreactivity (PSR sort gate)” value was “high polyreactivity”.
With “QVQLEESGGGLVQAGGSLRLSCAASGFTFDGYAMGWYRPAPGKERELVAAITSSGGSTYYADSVKGRFTISRDNTKNTVYLQMNSLKPEDTAVYYCNAVYYYGYYYYWTEFNYWGQGTQVTVSS” the “polyreactivity (PSR sort gate)” value was “high polyreactivity”.
With “QVQLEESGGGLVQAGGSLRLSCAASGFTFRVYAMGWYRQAPGKERELVAAISSGGSTNYADSVKGRFTISRDNAKNTVYLQMNSLKPEDTAVYYCAARQRYYSERPQYSGLYYWGQGTQVTVSS” the “polyreactivity (PSR sort gate)” value was “high polyreactivity”.
In the case of “QVQLEESGGGLVQAGGSLRLSCAASGFTFTDYALGWYRQAPGTERELVAVITYDSTYYADPVKGRFTISRDNAKNTVYLQMNSLNPEDTAVYFCAADSYDWGDFDYWGQGTQVTVSS”, the “polyreactivity (PSR sort gate)” value is reported as “low polyreactivity”.
With “QVQLEESGGGLVQAGGSLRLSCAASGFTFTYYAMGWYRQAPGKERELVASISYSGGSTYYADSVKGRFTISRDNAKNTVYLQMNSLKPEDTAVYYGAARTRHVHYGYWGQVTQVTVSS” the “polyreactivity (PSR sort gate)” value was “high polyreactivity”.
For “QVQLEESGGGLVQAGGSLRLSCAASGFTFYRYAMGWYRQAPGKERELVAAITWSGGSTYYADSVKGRFTISRDNAKNTVYLQMNSLKPEDTGVYYCNAAAYYPTNYGGYLFEYWGQGTQVTVSS”, the “polyreactivity (PSR sort gate)” value was “low polyreactivity”.
For “QVQLEESGGGLVQAGGSLRLSCAASGFTLPLYAMGWYIQAPGKERELVAAISSGGGRTYYADSVKGRFTISPDYEKNSVYLQMNSLKPEDTAVYYCNVDRWWLGRYKFYYWGQGTQVTVSS”, the “polyreactivity (PSR sort gate)” value was “high polyreactivity”.
With “QVQLEESGGGLVQAGGSLRLSCAASGGTLRYYVMGSYRQAPGKERELVAAISWSGDSTYYADSVKGRFTISRDNAKNTVYLQMNSLKPEDTAVYYCAATYYLTYYYGQANHGYDYWGQGTQVTVSS” the “polyreactivity (PSR sort gate)” value was “low polyreactivity”.
In the case of “QVQLEESGGGLVQAGGSLRLSCAASGIFTRYAMGWYRQAPGKERELVAAISRGGGSTYYADTVKGRFTISRDNAKNTVYLLMNSLKPEDTAVYYCYTYKRPRSPGPKFYYWGQGTQVTVSS”, the “polyreactivity (PSR sort gate)” value is reported as “high polyreactivity”.
With “QVQLEESGGGLVQAGGSLRLSCAASGIIFGTNAMGWYRQAPGKERELVATISWRGGSTYYADSVKGRFTISRDNAKNTVYLQMTSLKPEDTAVYYCAAGASGQRAYRRYYWGQGTQVTVSS” the “polyreactivity (PSR sort gate)” value was “high polyreactivity”.
For “QVQLEESGGGLVQAGGSLRLSCAASGIIFSGNAMGWYRQAPGKERELVAANTRSGGTTYYADSVKGRFTISRDNAKNTVYLQMNSLKPEDTAVYYCAASYPLYVFYVSGYDYWGQGTQVTVSS”, the “polyreactivity (PSR sort gate)” value was “low polyreactivity”.
For “QVQLEESGGGLVQAGGSLRLSCAASGIIFSGYAMGWYRQAPGKERELVASIRSGSNTYYADSVKGRFTISRDNAKNTVYLQMISLKPEDTAVYYCAARVVPATFRFIRYPHPYYYWGQGTQVTVSS”, the “polyreactivity (PSR sort gate)” value was “low polyreactivity”.
In the case of “QVQLEESGGGLVQAGGSLRLSCAASGIIFSIYAMGLYRKAPGKERELVAAITYSGGRTYYADSVKGRFTISRDNAKNTVYLQMNSLKPEDTAVYYCAAVVYGEYYWGQGTQVTVSS”, the “polyreactivity (PSR sort gate)” value is reported as “high polyreactivity”.
For “QVQLEESGGGLVQAGGSLRLSCAASGIISTVYAMGWYRQAPGKERELVAAISCSGGSTYYADSLKGSFTISRDNENNTVYLQMNSLKPEDTAVYYCSKGYQYQGNSYGYWGQGTQVTVSS”, the “polyreactivity (PSR sort gate)” value was “low polyreactivity”.
In the case of “QVQLEESGGGLVQAGGSLRLSCAASGINFQGNARGWYRQAPGKERELVASITAGGDTTYYADSVKGRFTISRDNAKNTFYLQLNSVKPEDSEVYDCAVYSWLDADDSYPDSILVDYWGQGTQVTVSS”, the “polyreactivity (PSR sort gate)” value is reported as “low polyreactivity”.
For “QVQLEESGGGLVQAGGSLRLSCAASGITIYYYAMGWYRQAPGKERELVAAISRSAGSTSYADSVKGRFTISRDNAKNTVYLQMNSLKTEDNAVYYCAAQGWHLDSQWQLYNYYYWGQGTQVTVSS”, the “polyreactivity (PSR sort gate)” value was “high polyreactivity”.
In the case of “QVQLEESGGGLVQAGGSLRLSCAASGLIFARNAMGWYRQAPGKERELVAAISKRGGSTFYADSVKGRFTISRDNAKNTVYLQMKSLNPEDTAVYYCNARSSETWHGDYWGQGTQVTVSS”, the “polyreactivity (PSR sort gate)” value is reported as “high polyreactivity”.
For “QVQLEESGGGLVQAGGSLRLSCAASGLIFQVYALGWYRQAPGKERELVASISWNGGSTYYADSVKGRFTISRDNAKNTVYLQMNSLKPEDTAVYYCNKYPVSLWYYSKDYTYDYWGQGTQVTVSS”, the “polyreactivity (PSR sort gate)” value was “low polyreactivity”.
With “QVQLEESGGGLVQAGGSLRLSCAASGLILRTYGMGWYRQAPGKERELVAVISSGGSTYYADSVKGRFTISRDNAKNTVYLQMNSLKPEDTAVYYCAVRSSWYEGDYWGQGTQVTVSS” the “polyreactivity (PSR sort gate)” value was “low polyreactivity”.
With “QVQLEESGGGLVQAGGSLRLSCAASGLTFGDYTMGWYRQAPWKERELVAAITSRGGRTYYADSVKGRFTISRDNAKNTVYLQMNSLTPEDTAVYYCAADDLRIKRVGFDYWGQGTQVTVSS” the “polyreactivity (PSR sort gate)” value was “high polyreactivity”.
For “QVQLEESGGGLVQAGGSLRLSCAASGLTFRSYAMGWYRQAPGTEREFVAAITGSGDTTYYAVSVKGRFTISRDNALNTVYLQMNSLNPEETAGYYCNADRDYLWITLYEYWGQGTQLTVSS”, the “polyreactivity (PSR sort gate)” value was “high polyreactivity”.
With “QVQLEESGGGLVQAGGSLRLSCAASGLTFVYNAMGWYRQAPGKERELVAAISRVGSTNYADSVKGRFTISRDNAKNTVYLQMNSLKPEDTAVYYCNAERSRRYSGWVNYAPLNYWGQGTQVTVSS” the “polyreactivity (PSR sort gate)” value was “low polyreactivity”.
With “QVQLEESGGGLVQAGGSLRLSCAASGLTLGRYAMGWYRPAPGKERELVAVITGGGSTNYADSVKGRFTISRDNAKNTVYLQMNSLKPEDTAVYYCAVRGGIFQTLSTWYRYYYWGQGTQVTVSS” the “polyreactivity (PSR sort gate)” value was “high polyreactivity”.
In the case of “QVQLEESGGGLVQAGGSLRLSCAASGRICAYYTMGWYRQAPGKERELVASITSGSSTNYADSVKGRFTISRDNAKNTVYLQMNSLKPEDTAVYYSAAPRGSYVRTRYRGYVVQSNYWGQGTQVTVSS”, the “polyreactivity (PSR sort gate)” value is reported as “high polyreactivity”.
With “QVQLEESGGGLVQAGGSLRLSCAASGRIFGIYAMGWYRQAPGKERELVASITDGTITNYADSVKGRFTISRDNAKNTVYLQMNSLKPEDTAVYYCAAGTQAHAFVVRPIEMDYWGQGTQVTVSS” the “polyreactivity (PSR sort gate)” value was “low polyreactivity”.
In the case of “QVQLEESGGGLVQAGGSLRLSCAASGRIFHKNAMGWYRQAPGKEREFVATISSRGGSTYYADSVKGRFTISRDNSKNTVYLQMNSLKPEDSAVYYCAAGWYRNDWGQRLHTYYYWGQGTQVTVSS”, the “polyreactivity (PSR sort gate)” value is reported as “high polyreactivity”.
For “QVQLEESGGGLVQAGGSLRLSCAASGRIFNENAMGWYRQAPGKERELVAAITQSGGSTYYADSVKGRFTISRDNAKNTVYLQMNSLKPEDTAVYYCAAGDAYYTEALPFGEYDYWGQGTQVTVSS”, the “polyreactivity (PSR sort gate)” value was “low polyreactivity”.
In the case of “QVQLEESGGGLVQAGGSLRLSCAASGRIFPINTMGWYRQAPGKERELVAAISSNGGRTYYADSVKGRFTISRDNAKNTVYLQMNSLKPEDTAVYYCAADAGYYWPGYYYWGQGTQVTVSS”, the “polyreactivity (PSR sort gate)” value is reported as “high polyreactivity”.
